Measured values reported in paper PMC6070864, “The Bacteriophage T4 MotB Protein, a DNA-Binding Protein, Improves Phage Fitness”.

B1: dsP8 (37 bp) (dsDNA)
DNA 1: CAGAGACTATAATTAATAAATACAAAAACTATAAATG
DNA 2: CATTTATAGTTTTTGTATTTATTAATTATAGTCTCTG
B2: ssP8 (37 nt) (ssDNA)
DNA: B1 DNA 1

Columns and labels:
MotB-His [1] = molecular target: T1, MotB-His (Enterobacteria phage T4, UniProt Q01437 1-162); assay: EMSA; apparent Kd (50% shift); 4 mM Mg acetate; Oligo EMSA/footprint: 40 mM Tris acetate pH 7.9, 20 mM Tris-HCl pH 8.0, 2 mM K phosphate, 60 mM NaCl, 150 mM K glutamate, 4 mM Mg acetate, 0.52 mM EDTA, 0.14 mM DTT, 0.1 mg/mL BSA, 0.004% Triton X-100, 30% glycerol, 1 nM DNA (5 nM in footprint), 37 C 10 min; T4/lambda EMSA: 20 mM Tris-HCl pH 8, 2 mM K phosphate, 60 mM NaCl, 0.42 mM EDTA, 0.04 mM DTT, 0.004% Triton …; settings: protein: recombinant; tags: C-terminal His6; label: 5'-32P top strand
T1 sequence: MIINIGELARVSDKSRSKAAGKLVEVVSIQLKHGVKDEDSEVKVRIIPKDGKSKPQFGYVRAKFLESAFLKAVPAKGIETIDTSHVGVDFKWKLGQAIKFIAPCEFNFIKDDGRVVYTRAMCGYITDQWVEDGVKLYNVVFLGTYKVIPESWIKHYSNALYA

MotB-His [2] = molecular target: T1, MotB-His; assay: EMSA; 4 mM Mg acetate; Oligo EMSA/footprint: 40 mM Tris acetate pH 7.9, 20 mM Tris-HCl pH 8.0, 2 mM K phosphate, 60 mM NaCl, 150 mM K glutamate, 4 mM Mg acetate, 0.52 mM EDTA, 0.14 mM DTT, 0.1 mg/mL BSA, 0.004% Triton X-100, 30% glycerol, 1 nM DNA (5 nM in footprint), 37 C 10 min; T4/lambda EMSA: 20 mM Tris-HCl pH 8, 2 mM K phosphate, 60 mM NaCl, 0.42 mM EDTA, 0.04 mM DTT, 0.004% Triton X-100, 30% glycerol, 37 C 10 …; settings: protein: recombinant; tags: C-terminal His6; label: 5'-32P

Binder	Kd (MotB-His [1]) [nM]	binding signal (MotB-His [2])
B1	100 ± 30	–
B2	–	~6 fold lower affinity than dsP8
